Results published in the RNAGym collection of RNA variant scans (doi:10.1073/pnas.2313332121).

B1: TPR t1 (parent)
chain: GACCAAUCUGCCCUCAGAGCUCGAGAACAUCUUCGGAUGCAGAGGAGGCAGGCUUCGGUGGCGCGAUAGCGCCAACGUCCUCAACCUCCAAUGCAUCCCACCACAUGAUGAUGCCUGAAGAGCCUUGGUUUUUUG

Variants of: B1
Assay: polymerase ribozyme fitness, log enrichment relative to wild type (log ratio); higher = more active; in vitro selection for triplet polymerase activity
Summary of the method: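 PCR was used to build mutant libraries for each subunit of a heterodimeric triplet polymerase ribozyme, which were then transcribed. A single in vitro selection round, in triplicate, used a frozen incubation at −7 °C and recovered extended constructs by gel excision, streptavidin beads and RT-PCR. Fitness is the logarithm of genotype enrichment relative to wild-type enrichment, averaged over replicates with inverse-variance weights. The logarithm is base 2, and after Illumina sequencing only genotypes with ≥10 input reads and ≥1 read per output were kept.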

Point of comparison: GACCAAUCUGGCCUCAGAGCUCGAGAACAUCUUCGGAUACAGAGGAGGCAGGCUUCGGUGGCGCGAUAGCGCCAACGUCCUCAACCUCCAAUGCAUCCCACCACAUGAUGAUGCCUGAAGAGCCUUGGUUUUUUG [C11G G39A], “polymerase ribozyme fitness (log ratio)” value 0.759. Against it:
- GACCAAUCUGGCCUCAGAGCUCGAGAACAUCUUCAGAUGCAGAGGAGGCAGGCUUCGGUGGCGCGAUAGCGCCAACGUCCUCAACCUCCAAUGCAUCCCACCACAUGAUGAUGCCUUAAGAGCCUUGGUUUUUUG [C11G G35A G117U] — lower, -6.34
- GACCAAUCUGGCCUCAGAGCUCGAGAACAUCUUCAGAUGCAGAGGAGGCAGGCUUCGGUGGCGCGAUACCGCCAACGUCCUCAACCUCCAAUGCAUCUCACCACAUGAUGAUGCCUGAAGAGCCUUGGUUUUUUG [C11G G35A G69C C98U] — lower, -1.46
- GACCAAUCUGGCCUCAGAGCUCGAGAACAUCUUCAGAUGCAGAGGAGGCAGGCUUCGGUCGCGCGAUAGCGCCAACGUCCUCAACCUCCAAUGCAUCUCACCACAUGAUGAUGCCUGAAGAGCCUUGGUUUUUUG [C11G G35A G60C C98U] — lower, -1.01
- GACCAAUCUGGCCUCAGAGCUCGAGAACAUCUUCGGAUGCAGAAGAGGCAGGCUUGGGUGGCGCGAUAGCGCCAACGUCCUGAACCUUCAAUGCAUCCCACCACAUGAUGAUGCCUGAAGAGCCUUGGUUUUUUG [C11G G44A C56G C82G C88U] — lower, -2.81
- GACCAAUCUGGCCUCAGAGCUCGAGAACAUCUUCGAAUGCAGAGGAGGCAGGCUUCGGUGGCGCGAUAGAGCCAACGUCCUCAACCUCCAAUGCAUCCCACCACAUGAUGAUGCCUGAAGAGCCUUGGUUUUUUG [C11G G36A C70A] — lower, -1.16
- GACCAAUCUGGCCUCAGAGCUCGAGAACAUCUUCGGAUGCAGAAGAGGCAGGCUUCGGUGGCGCGAUAGCGCCAACGUCCUCAACCUCCAAUGCAUCCCACCACAUGAUGAUGCCUGAAGAGCCUUGGUUUUGUG [C11G G44A U133G] — lower, -1.89
- GACCAAUCUGGCCUCAGAGCUCGAGAACAUCUUCGAAUGCAGAGGAGGCAGGCUUCGGUGGCGCGAUAGCGCCAACGUCCUCAACCUCCAAUGCAUCCCACCACAUGAUGAUGCCUGAAGAGCCUUAGUUUUUUG [C11G G36A G127A] — lower, -2.95
- GACCAAUCUGGCCUCAGAGCUCGAGAACAUCUUCGGAUGCAGAAGAGGCAGGCUUCGGUGGCGCGAUAGCGCCAACGUCCUCAACCUCCAAUGCAUCCCACCACAUGAUGAUGCCUGAAGAGCCUUGGUUUUUUG [C11G G44A] — lower, -0.407
- GACCAAUCUGGCCUCAGAGCUCGAGAACAUCUUCGGAUGCAUAGGAGGCAGGCUUCGGUGGCGCGAUAGCGCCAACGUCCUCAACCUCCAAUGCAUCCCACCACAUGAUGAUGCCUGAAGAGCCUUGGUUUUUUG [C11G G42U] — lower, -0.866
- GACCAAUCUGGCCUCAGAGCUCGAGAACAUCUUCGGAUACAGAGGAGGCAGGCUUCGGUGACGCGAUAGCGCCAACGUCCUCAACCUCCAAUGCAUCCCACCACAUGAUGAUGCCUGAAGAGCCUUGGUUUUUUG [C11G G39A G61A] — lower, -0.302
- GACCAAUCUGGCCUCAGAGCUCGAGAACAUCUUCGGAUGCAGACGAGGCAGGCUUCGGUGGCGCGAUAGCGCCAACGUCCUCAACGUCCAAUGCAUCCCACCACAUGAUGAUGCCUGAAGAGCCUAGGUUUUUUG [C11G G44C C86G U126A] — lower, -2.2
- GACCAAUCUGGCCUCAGAGCUCGAGAACAUCUUCGGAUGCAGAAGAGGCAGGCUUCGGUGGCGCGAUAGCGCCAACGUCCUCAACCUCCAAUGCAUCCCACCACAUGAUGAUGCCUGAAGAGCCGUGGUUUUUUG [C11G G44A U125G] — lower, -0.96
- GACCAAUCUGGCCUCAGAGCUCGAGAACAUCUUCGGAUGCAGACGAGGCAGGCUUCGGUGGCGCGAUAGCGCCAACGUGCUCAACCUCCAAUGCAUCCCACCACAUGAUGAUGCCUGAAGAGCCUUGGUUUUUUG [C11G G44C C79G] — lower, -2.6
- GACCAAUCUGGCCUCAGAGCUCGAGAACAUCUUCGUAUGCAGUGGAGGCAGGCUUCGGUGGUACGAUAGCGCCAACGUCCUCAACCUCCAAUGCAUCCCACCACAUGAUGAUGCUUGAAGAGCCAUGGUUUAUUG [C11G G36U A43U C62U G63A C115U U125A U132A] — lower, -5.64
- GACCAAUCUGGCCUCAGAGCUCGAGAACAUCUUCGGAUGCAUAGGAGGCAGGCUUCGGUGGCGCGAUAGCGCCAACGUCCUCAACCUCCAAUGCAUCCCACCAAAUGAUGAUGCCUGAAGCGCCUUGGUUUUUUG [C11G G42U C104A A121C] — lower, -3.09
- GACCAAUCUGGCCUCAGAGCUCGAGAACAUCUUCGCAUGCAGACGAGGCAGGCUUCGGUGGCGCGAUAGCGCCAACGACCUCAACCGCCAAUGCAUCCCACCACAUGAUGAUGCCUGAAGAGCCUUGGUUUUUUG [C11G G36C G44C U78A U87G] — lower, -1.77
- GACCAAUCUGGCCUCAGAGCUCGAGAACAUCUUCGGAUUCAGAGGAGGCAGGCUUUGGUGGCGCGAUAGCGCCAACGUCCUCAACCUCCAAUGCAUCCCACCACAUGAUGAUGCCUGAAGAGCCUUGGUUUUUUG [C11G G39U C56U] — lower, -0.805
- GACCAAUCUGGCCUCAGAGCUCGAGAACAUCUUCGGAUGCAGAGAAGGCAGGGUUCUGUGGCGCGAUAGCGCCAACGUCCUCAACCUCCAAUGCAUCCCACCAGAUGAUGAUGUCUGAAGAGCCUUGGUUUUUUG [C11G G45A C53G G57U C104G C114U] — lower, -6.51
- GACCAAUCUGGCCUCAGAGCUCGAGAACAUCUUCGAAUGCAGAGGAGGCAGGCUUCGGUGGCCCGAUAGCGCCAACGUCCUCAACCUCCAAUGCAUCCCACCACAUGAUGAUGCCUGAAGAGCCUUGGUUUUUUG [C11G G36A G63C] — lower, -1.16
- GACCAAUCUGGCCUCAGAGCUCGAGAACAUCUUCGGAUACAGAGGAGGCAGGCUUCGGUGGCGCGAUAGCGCCAACGUCCUCAACCUCCAAUGCAUCCCACCACAUGAUGAUGCCUGAACAGCCUUCGUUUUUUG [C11G G39A G120C G127C] — higher, 0.971
